The values that follow come from US12618845B2, “Methods and compositions for protein sequencing” (Quantum-Si Incorporated, priority 2018, dated 2026).

Like-named read-outs stand apart in the source and are kept apart here.

In the experiment the test system is peptide substrates. Type of experiment: biochemical.
[1] abbreviates: substrate AAPFQQ (SEQ ID NO: 118), 1 mM Peptide, 1 μM enzyme, 10 mM Mg(OAc)2, 50 mM MOPS pH 8, 60 mM KOAc, RT/0.5 hr.
Setting [2] is: substrate CCPFQQ (SEQ ID NO: 144), 1 mM Peptide, 1 μM enzyme, 10 mM Mg(OAc)2, 50 mM MOPS pH 8, 60 mM KOAc, RT/0.5 hr.
[3] abbreviates: substrate DDPFQQ (SEQ ID NO: 126), 1 mM Peptide, 1 μM enzyme, 10 mM Mg(OAc)2, 50 mM MOPS pH 8, 60 mM KOAc, RT/0.5 hr.
[4] abbreviates: substrate EEPFQQ (SEQ ID NO: 128), 1 mM Peptide, 1 uM enzyme, 10 mM Mg(OAc)2, 50 mM MOPS pH 8, 60 mM KOAc, RT/0.5 hr.
The mark [5] stands for this setting: substrate FFPFQQ (SEQ ID NO: 124), 1 mM Peptide, 1 μM enzyme, 10 mM Mg(OAc)2, 50 mM MOPS pH 8, 60 mM KOAc, RT/0.5 hr.
Where [6] appears, read: substrate GGPFQQ (SEQ ID NO: 152), 1 mM Peptide, 1 uM enzyme, 10 mM Mg(OAc)2, 50 mM MOPS pH 8, 60 mM KOAc, RT/0.5 hr.
The mark [7] stands for this setting: substrate HHPFQQ (SEQ ID NO: 154), 1 mM Peptide, 1 uM enzyme, 10 mM Mg(OAc)2, 50 mM MOPS pH 8, 60 mM KOAc, RT/0.5 hr.
The mark [8] stands for this setting: substrate IIPFQQ (SEQ ID NO: 136), 1 mM Peptide, 1 μM enzyme, 10 mM Mg(OAc)2, 50 mM MOPS pH 8, 60 mM KOAc, RT/0.5 hr.
The mark [9] stands for this setting: substrate KKPFQQ (SEQ ID NO: 120), 1 mM Peptide, 1 uM enzyme, 10 mM Mg(OAc)2, 50 mM MOPS pH 8, 60 mM KOAc, RT/0.5 hr.
Setting [10] is: substrate LLPFQQ (SEQ ID NO: 138), 1 mM Peptide, 1 μM enzyme, 10 mM Mg(OAc)2, 50 mM MOPS pH 8, 60 mM KOAc, RT/0.5 hr.
Where [11] appears, read: substrate MMPFQQ (SEQ ID NO: 148), 1 mM Peptide, 1 uM enzyme, 10 mM Mg(OAc)2, 50 mM MOPS pH 8, 60 mM KOAc, RT/0.5 hr.
[12] abbreviates: substrate NNPFQQ (SEQ ID NO: 130), 1 mM Peptide, 1 μM enzyme, 10 mM Mg(OAc)2, 50 mM MOPS pH 8, 60 mM KOAc, RT/0.5 hr.
Where [13] appears, read: substrate PPPFQQ (SEQ ID NO: 150), 1 mM Peptide, 1 uM enzyme, 10 mM Mg(OAc)2, 50 mM MOPS pH 8, 60 mM KOAc, RT/0.5 hr.
Setting [14] is: substrate QQPFQQ (SEQ ID NO: 132), 1 mM Peptide, 1 μM enzyme, 10 mM Mg(OAc)2, 50 mM MOPS pH 8, 60 mM KOAc, RT/0.5 hr.
[15] abbreviates: substrate RRPFQQ (SEQ ID NO: 116), 1 mM Peptide, 1 uM enzyme, 10 mM Mg(OAc)2, 50 mM MOPS pH 8, 60 mM KOAc, RT/0.5 hr.
Setting [16] is: substrate SSPFQQ (SEQ ID NO: 140), 1 mM Peptide, 1 μM enzyme, 10 mM Mg(OAc)2, 50 mM MOPS pH 8, 60 mM KOAc, RT/0.5 hr.
[17] abbreviates: substrate TTPFQQ (SEQ ID NO: 142), 1 mM Peptide, 1 μM enzyme, 10 mM Mg(OAc)2, 50 mM MOPS pH 8, 60 mM KOAc, RT/0.5 hr.
Where [18] appears, read: substrate VVPFQQ (SEQ ID NO: 134), 1 mM Peptide, 1 μM enzyme, 10 mM Mg(OAc)2, 50 mM MOPS pH 8, 60 mM KOAc, RT/0.5 hr.
The mark [19] stands for this setting: substrate WWPFQQ (SEQ ID NO: 146), 1 mM Peptide, 1 μM enzyme, 10 mM Mg(OAc)2, 50 mM MOPS pH 8, 60 mM KOAc, RT/0.5 hr.
Where [20] appears, read: substrate YYPFQQ (SEQ ID NO: 122), 1 mM Peptide, 1 μM enzyme, 10 mM Mg(OAc)2, 50 mM MOPS pH 8, 60 mM KOAc, RT/0.5 hr.

B1: PfuTET: Pfu aminopeptidase I (protein)
chain: MVDWELMKKIIESPGVSGYEHLGIRDLVVDILKDVADEVKIDKLGNVIAHFKGSAPKVMVAAHMDKIGLMVNHIDKDGYLRVVPIGGVLPETLIAQKIRFFTEKGERYGVVGVLPPHLRREAKDQGGKIDWDSIIVDVGASSREEAEEMGFRIGTIGEFAPNFTRLSEHRFATPYLDDRICLYAMIEAARQLGEHEADIYIVASVQEEIGLRGARVASFAIDPEVGIAMDVTFAKQPNDKGKIVPELGKGPVMDVGPNINPKLRQFADEVAKKYEIPLQVEPSPRPTGTDANVMQINREGVATAVLSIPIRYMHSQVELADARDVDNTIKLAKALLEELKPMDFTPLE
B1: the “HPLC Assay Conv” value is, setting by setting: under setting [1], 100%; under setting [2], 72%; under setting [3], 86%; under setting [4], 93%; under setting [5], 65%; under setting [6], 0%. Also, the “HPLC Assay Conv” value reads like this: under setting [7], 19%; under setting [8], 0%; under setting [9], 100%; under setting [10], 99%; under setting [11], 100%; under setting [12], 81%. Further, the “HPLC Assay Conv” value is, setting by setting: under setting [13], 0%; under setting [14], 100%; under setting [15], 100%; under setting [16], 90%; under setting [17], 100%; under setting [18], 0%. The “HPLC Assay Conv” value under setting [19] is on record as 37% and the “HPLC Assay Conv” value under setting [20] is listed as 100%.

B2: Rat APN (protein)
chain: KPWNQYRLPKTLIPDSYQVTLRPYLTPNEQGLYIFKGSSTVRFTCNETTNVIIIHSKKLNYTNKGNHRVALRALGDTPAPNIDTTELVERTEYLVVHLQGSLVKGHQYEMDSEFQGELADDLAGFYRSEYMEGGNKKVVATTQMQAADARKSFPCFDEPAMKASFNITLIHPNNLTALSNMLPKDSRTLQEDPSWNVTEFHPTPKMSTYLLAYIVSEFKYVEAVSPNRVQIRIWARPSAIDEGHGDYALQVTGPILNFFAQHYNTAYPLEKSDQIALPDFNAGAMENWGLVTYRESALVFDPQSSSISNKERVVTVIAHELAHQWFGNLVTVDWWNDLWLNEGFASYVEFLGADYAEPTWNLKDLIVLNDVYRVMAVDALASSHPLSSPANEVNTPAQISELFDSITYSKGASVLRMLSSFLTEDLFKKGLSSYLHTFQYSNTIYLDLWEHLQQAVDSQTAIKLPASVSTIMDRWILQMGFPVITVNTSTGEIYQEHFLLDPTSKPTRPSDFNYLWIVPIPYLKNGKEDHYWLETEKNQSAEFQTSSNEWLLLNINVTGYYQVNYDENNWRKIQNQLQTDLSVIPVINRAQIIHDSFNLASAGKLSITLPLSNTLFLASETEYMPWEAALSSLNYFKLMFDRSEVYGPMKRYLKKQVTPLFAYFKIKTNNWLDRPPTLMEQYNEINAISTACSSGLEECRDLVVGLYSQWMNNSDNNPIHPNLRSTVYCNAIAFGGEEEWNFAWEQFRKATLVNEADKLRSALACSNEVWILNRYLSYTLNPDYIRKQDATSTIVSIANNVVGQTLVWDFVRSNWKKLFEDYGGGSFSFANLIQGVTRRFSSEFELQQLEQFKEDNSATGFGSGTRALEQALEKTKANIKWVKENKDVVLKWFTENS
Turning to B2, the “HPLC Assay Conv” value is 100% (substrate AAPAAP{LYSN3}NH2 (SEQ ID NO: 98), 1 mM peptide, 50 nM enzyme, 2.5 mM ZnCl2, 25 mM Tris pH 8.0, 30° C./1 hr); over 90% (substrate KKMKKMLys-Triazole-PEG4 Biotin (SEQ ID NO: 89), 1 mM peptide, 150 nM enzyme, 2.5 mM ZnCl2 25 mM Tris pH 8.0, 30° C./1 hr); 50% (substrate KKMKKM{LYSN3}NH2 (SEQ ID NO: 71), 1 mM peptide, 50 nM enzyme, 2.5 mM ZnCl2, 25 mM Tris pH 8.0, 30° C./1 hr); 85% (substrate KKPKKP{LYSN3}NH2 (SEQ ID NO: 100), 1 mM peptide, 50 nM enzyme, 2.5 mM ZnCl2, 25 mM Tris pH 8.0, 30° C./1 hr); over 95% (substrate QP5-Atto649N ([…]{LYSN3}NH2) (SEQ ID NO: 106), 37 μM Peptide, 100 nM Enzyme, 2.5 mM ZnCl2, 25 mM Tris pH 8.0, 37° C./0.5 hr); 55% (substrate RRPRRP{LYSN3}NH2 (SEQ ID NO: 96), 1 mM peptide, 50 nM enzyme, 2.5 mM ZnCl2, 25 mM Tris pH 8.0, 30° C./1 hr).

B3: hTET: Pyrococcus horikoshii TET aminopeptidase, SEQ ID NO: 59 (protein, listed as Pyrococcus horikoshii)
chain: MEVRNMVDYELLKKVVEAPGVSGYEFLGIRDVVIEEIKDYVDEVKVDKLGNVIAHKKGEGPKVMIAAHMDQIGLMVTHIEKNGFLRVAPIGGVDPKTLIAQRFKVWIDKGKFIYGVGASVPPHIQKPEDRKKAPDWDQIFIDIGAESKEEAEDMGVKIGTVITWDGRLERLGKHRFVSIAFDDRIAVYTILEVAKQLKDAKADVYFVATVQEEVGLRGARTSAFGIEPDYGFAIDVTIAADIPGTPEHKQVTHLGKGTAIKIMDRSVICHPTIVRWLEELAKKHEIPYQLEILLGGGTDAGAIHLTKAGVPTGALSVPARYIHSNTEVVDERDVDATVELMTKALENIHELKI
With B3, the “HPLC Assay Conv” value by setting is: under setting [1], 100%; under setting [2], 32%; under setting [3], 4%; under setting [4], 0%; under setting [5], 100%; under setting [6], 33%. Besides, the “HPLC Assay Conv” value was 26% under setting [7]; 100% under setting [8]; 0% under setting [9]; 100% under setting [10]; 0% under setting [11]; 69% under setting [12]. The “HPLC Assay Conv” value runs as follows: under setting [13], 0%; under setting [14], 63%; under setting [15], 0%; under setting [16], 100%; under setting [17], 100%; under setting [18], 100%. In addition, the “HPLC Assay Conv” value worked out at 4% under setting [19]; 99% under setting [20]; 100% (substrate […]1 (SEQ ID NO: 156), 1 mM Peptide, 1.0 μM enzyme, 10 mM Mg(OAc)2, 50 mM MOPS pH 8, 60 mM KOAc, RT/0.5 hr); 55% (substrate […], 200 μM Peptide, 2 μM, 37° C. (rest of the wrapped entry lies below the rows shown)); 55% (substrate […]{LYSN3}NH2 (SEQ ID NO: 107), 200 μM Peptide, 2 μM enzyme, 10 mM MgCl2, 50 mM MOPS pH 8.0, 37° C./1 hr); 100% (substrate […]{LYSN3}NH2 (SEQ ID NO: 109), 200 μM Peptide, 4 μM enzyme, 10 mM MgCl2, 50 mM MOPS pH 8.0, 37° C./1 hr).
